Data set [1] deals with CTLA4-Fc MMP9 (MMP9-cleavable CTLA4-Fc mask; CTLA4-Fc_WT).
The target in data set [2] is CTLA4-Fc Mxx9 (non-cleavable mask), P16410.
The target in data set [3] is T1, mLCN2-Fc (bivalent m-Lcn2 fused to human IgG1 Fc).
T1 chain: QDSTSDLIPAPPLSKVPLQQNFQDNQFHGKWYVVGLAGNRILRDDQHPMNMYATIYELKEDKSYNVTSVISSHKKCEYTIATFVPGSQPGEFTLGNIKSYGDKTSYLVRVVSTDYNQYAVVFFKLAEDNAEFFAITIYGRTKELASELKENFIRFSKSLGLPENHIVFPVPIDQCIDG

Sequence of CTLA4-Fc MMP9 (MMP9-cleavable CTLA4-Fc mask; CTLA4-Fc_WT) (chain, as listed by the source): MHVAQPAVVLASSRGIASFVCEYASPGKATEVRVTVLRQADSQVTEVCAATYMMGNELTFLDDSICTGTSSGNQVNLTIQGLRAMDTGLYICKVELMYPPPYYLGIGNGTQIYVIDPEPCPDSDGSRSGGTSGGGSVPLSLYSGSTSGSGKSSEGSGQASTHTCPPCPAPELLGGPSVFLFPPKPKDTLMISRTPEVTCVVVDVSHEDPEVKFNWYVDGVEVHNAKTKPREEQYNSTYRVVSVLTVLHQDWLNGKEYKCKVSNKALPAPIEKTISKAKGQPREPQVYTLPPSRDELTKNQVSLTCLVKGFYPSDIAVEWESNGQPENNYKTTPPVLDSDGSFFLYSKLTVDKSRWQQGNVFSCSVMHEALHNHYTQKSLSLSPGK
Sequence of CTLA4-Fc Mxx9 (non-cleavable mask), P16410 (P16410 whole entry, looked up, the tested form may be a part): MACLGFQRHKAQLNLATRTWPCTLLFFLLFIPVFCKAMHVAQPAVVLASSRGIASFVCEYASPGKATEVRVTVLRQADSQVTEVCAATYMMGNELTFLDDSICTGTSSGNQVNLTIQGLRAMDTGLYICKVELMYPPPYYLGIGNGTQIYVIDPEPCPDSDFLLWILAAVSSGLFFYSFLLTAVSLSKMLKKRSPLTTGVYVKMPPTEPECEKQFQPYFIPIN

B1: recombinant human MMP9 (ProSpecBio) (protein)
chain: APRQRQSTLVLFPGDLRTNLTDRQLAEEYLYRYGYTRVAEMRGESKSLGPALLLLQKQLSLPETGELDSATLKAMRTPRCGVPDLGRFQTFEGDLKWHHHNITYWIQNYSEDLPRAVIDDAFARAFALWSAVTPLTFTRVYSRDADIVIQFGVAEHGDGYPFDGKDGLLAHAFPPGPGIQGDAHFDDDELWSLGKGVVVPTRFGNADGAACHFPFIFEGRSYSACTTDGRSDGLPWCSTTANYDTDDRFGFCPSERLYTQDGNADGKPCQFPFIFQGQSYSACTTDGRSDGYRWCATTANYDRDKLFGFCPTRADSTVMGGNSAGELCVFPFTFLGKEYSTCTSEGRGDGRLWCATTSNFDSDKKWGFCPDQGYSLFLVAAHEFGHALGLDHSSVPEALMYPMYRFTEGPPLHKDDVNGIRHLYGPRPEPEPRPPTTTTPQPTAPPTVCPTGPPTVHPSERPTAGPTGPPSAGPTGPPTAGPSTATTVPLSPVDDACNVNIFDAIAEIGNQLYLFKDGKYWRFSEGRGSRPQGPFLIADKWPALPRKLDSVFEERLSKKLFFFSGRQVWVYTGASVLGPRRLDKLGLGADVAQVTGALRSGRGKMLLFSGRRLWRFDVKAQMVDPRSASEVDRMFPGVPLDTHDVFQYREKAYFCQDRFYWRVSSRSELNQVDQVGYVTYDILQCPED
Consider B1, for which the “cleavage, SDS-PAGE” value is on record as “Recombinant MMP9 was demonstrated to effectively cleave the CTLA4-MMP9-Fc mask” in data set [1], “Addition of MMP9 had no effect on CTLA4-Fc Mxx9 bands” in data set [2] and “but not the m-Lcn2-Fc” in data set [3]. Further, the “intensity of the full-length band, time course of cleavage at 37 °C, SDS-PAGE” value in data set [1] is given as “At 2 h the intensity of the full-length band was ~50% of the 0 h timepoint”.

The values are drawn from patent US20200325212.
